Data published in IntAct's records for PubMed 17412836.

B1: Protein Nef (Human immunodeficiency virus type 1 group M subtype B (isolate Lai)), Q9QPN3 (parent)
chain: MGGKWSKSSVVGWPAVRERMRRAEPAADGVGAVSRDLEKHGAITSSNTAATNADCAWLEAQEEEEVGFPVTPQVPLRPMTYKAAVDLSHFLKEKGGLEGLIHSQRRQDILDLWIYHTQGYFPDWQNYTPEPGVRYPLTFGWCYKLVPVEPDKVEEANKGENTRLLHPVSLHGMDDPEREVLEWRFDSRLAFHHVARELHPEY
partner: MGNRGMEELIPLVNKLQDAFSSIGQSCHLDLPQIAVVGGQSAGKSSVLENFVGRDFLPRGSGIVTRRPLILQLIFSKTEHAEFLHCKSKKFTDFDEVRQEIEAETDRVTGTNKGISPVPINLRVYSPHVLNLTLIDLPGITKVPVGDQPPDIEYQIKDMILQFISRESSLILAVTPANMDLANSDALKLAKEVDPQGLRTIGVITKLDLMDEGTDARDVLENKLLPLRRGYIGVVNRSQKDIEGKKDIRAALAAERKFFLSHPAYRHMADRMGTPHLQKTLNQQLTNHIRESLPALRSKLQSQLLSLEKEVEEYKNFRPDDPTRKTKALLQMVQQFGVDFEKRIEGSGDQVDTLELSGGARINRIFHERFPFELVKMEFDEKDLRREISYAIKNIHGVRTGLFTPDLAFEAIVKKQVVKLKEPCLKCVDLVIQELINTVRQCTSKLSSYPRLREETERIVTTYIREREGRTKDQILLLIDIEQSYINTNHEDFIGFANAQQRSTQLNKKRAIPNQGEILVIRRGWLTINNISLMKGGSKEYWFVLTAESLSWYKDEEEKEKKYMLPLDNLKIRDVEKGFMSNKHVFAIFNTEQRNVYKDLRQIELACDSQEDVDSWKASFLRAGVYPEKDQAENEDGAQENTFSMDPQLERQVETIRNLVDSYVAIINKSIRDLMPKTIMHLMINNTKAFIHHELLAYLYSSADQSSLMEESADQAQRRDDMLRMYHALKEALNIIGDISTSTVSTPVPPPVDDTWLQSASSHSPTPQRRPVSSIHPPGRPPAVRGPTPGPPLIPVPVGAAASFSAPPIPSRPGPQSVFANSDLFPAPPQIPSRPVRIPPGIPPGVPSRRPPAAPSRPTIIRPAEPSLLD

Variants of: B1
Details: with dyn2_human DNM2, P50570

Row | Variant | effect of a mutation on the interaction
1 | L112A | decreasing interaction strength
2 | D123A | decreasing interaction strength
3 | G2A;G3A | disrupting interaction strength
4 | F121A;D123A | disrupting interaction strength
5 | F121A | decreasing interaction strength
